Molecular target: Hsp90alpha (UniProt P07900 P07900:2-732)
Assay: filter; nitrocellulose double-filter binding, printed as binding constant
Details: label: 5' biotin-TEG, radiolabel
Method: The protein-bound ASOs were transferred to a nitrocellulose membrane and the signal intensity was determined. As a control, no significant binding was found for a PS/DNA ASO. The specific binding of protein-bound ASO to the nitrocellulose membrane was confirmed using a double-filter binding assay for PS/cEt and PS/LNA ASOs. The unbound ASOs were attracted using a Hybond-N+Nylon membrane under the Hybond ECL nitrocellulose membrane.

CTGCTAGCCTCTGGATTTGA (XNA, 5-10-5 gapmer, LNA wings 1-5 and 16-20, 2'-deoxy gap, all C 5mC, full PS) [Isis 586184 (PS/LNA)]
Kd: 17.7 nM

Source: patent US20180148718, “COMPOUNDS AND METHODS FOR INCREASING ANTISENSE ACTIVITY” (Ionis Pharmaceuticals, Inc., published 2018)
